US20020165186A1, “Compounds that affect CD83 expression, pharmaceutical compositions comprising said compounds and methods for identifying said compounds” (priority 2000, published 2002)

Key:
Assay type in all cases: binding
[1] = target: T1, GST-ELAV (HuR) fusion protein (Homo sapiens, UniProt Q15717); assay: RNA gel mobility shift of CD83 RNA with GST-ELAV (HuR); settings: for HuR binding to sub-fragment domain: FIG. 10
T1 construct: made in house; host or cells: E. coli BL21
Method: RNA mobility shift experiments are a very sensitive method for characterizing RNA-protein interactions. For this, the RNA to be examined can be amplified and radioactively labeled with the aid of in vitro transcription from a linear DNA template. The labeling generally occurs with […]. In order to ensure the correct folding of the RNA, this is heated in a water bath to 80° C. and cooled to room temperature. RNA obtained in this manner is then incubated with the desired protein and subsequently analyzed on a native polyacrylamide gel, i.e. under non-denaturing conditions.
In order to obtain radioactively labeled RNA for the RNA mobility shift experiments, approximately 20 μg of this vector were linearized with EcoRI and purified on a 0.8% agarose gel. After elution from the gel, the template was extracted with phenol and ethanol precipitated. The resulting DNA was resuspended at a concentration of […] in 20μl nuclease-free water. Radioactively labeled RNA was generated using a Riboprobe In Vitro Transcription System (Promega, Heidelberg, Germany) according to the instructions of the manufacturer using [α-^32P]-UTP. The transcription products were controlled for size and purity by separating 1 μl of the in vitro transcription reaction on a denaturing RNA agarose gel (1.2%), blotting the gel to a nitrocellulose membrane (Amersham-Pharmacia, Freiburg, Germany) for 8 hours and examining the nitrocellulose filter with the aid of photographic film using RNA size standards.
(§1) RNA mobility shift experiments were then carried out using the radioactively labeled CD83 RNA and the GST-ELAV (HuR) fusion protein as described above. 1 μl of approximately 150-200 ng/ml radioactively labeled CD83 RNA and 1 μl of GST-ELAV (HuR) (protein concentration: 0.3 mg/ml) were used per reaction. Alternatively, GST protein without ELAV sequences was used as a control. The radioactively labeled CD83 RNA was heated to 80° C. in a water bath and cooled to room temperature directly before the reaction. The GST-ELAV (HuR) fusion protein (or GST control protein directly expressed from the vector pGEX-5X-1 was carefully mixed with a binding mixture consisting of 1 μl radioactively labeled CD83 RNA, 1 μl Rnasin® RNAse inhibitor (diluted 5:1 in PBS), 1 μl 10×PBS and 6 μl MS2 RNA or 5S RNA (Roche Diagnostics, Mannheim, Germany) (0.8 μg/μl) and incubated at room temperature for 30 min. 3 μl of 50% glycerin were added to each reaction to ease loading and analysis of the binding between the GST-ELAV (HuR) fusion protein and the CD83 RNA occurred on a 4% or 6% native polyacrylamide gel with a TBE running buffer of pH 8.3.
As a control for the specificity of the interaction between HuR and CD83 mRNA, RNA mobility shifts as described in Example 1 were performed using the GST protein as described above, a GST-L5 fusion protein (Schatz et al. (1998) PNAS USA 95: 1607-1612), and a GST- M9 fusion protein comprising the M9 domain of the heterogeneous nuclear ribonucleoprotein hnRNP A1 (Pollard, V. W. et al. (1996) Cell 86: 985-994).
The resulting vectors were linearized with EcoRI and radioactively labeled RNA was produced and employed in RNA mobility shift assays as described above.

[2] = target: T2, GST-ELAV (HuR) (Homo sapiens, UniProt Q15717); assay: RNA gel competition mobility shift with unlabeled CD83 RNA; settings: increasing amounts of unlabeled RNA, FIG. 5
T2 construct: made in house; host or cells: E. coli BL21
T2 sequence (Q15717 whole entry): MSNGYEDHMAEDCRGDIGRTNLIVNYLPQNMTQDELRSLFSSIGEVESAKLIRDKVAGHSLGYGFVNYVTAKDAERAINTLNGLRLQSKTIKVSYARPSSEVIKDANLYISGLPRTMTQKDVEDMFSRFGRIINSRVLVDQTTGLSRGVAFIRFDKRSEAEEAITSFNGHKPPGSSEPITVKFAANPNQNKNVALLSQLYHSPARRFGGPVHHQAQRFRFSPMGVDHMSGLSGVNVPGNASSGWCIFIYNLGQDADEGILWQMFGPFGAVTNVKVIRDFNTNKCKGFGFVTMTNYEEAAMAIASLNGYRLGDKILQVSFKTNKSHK
Method: For this, the binding mixture as described above was produced with increasing amounts of non-radioactive CD83 RNA and the RNA mobility shift experiments were carried out as described above, except that the binding mixture was incubated with the respective protein for 15 min and then the same amount of radioactively labeled CD83 RNA (1 μl) was subsequently added to each reaction and incubation was continued for a further 15 min.

[3] = target: T3, GST protein (Schistosoma japonicum, UniProt P08515); assay: RNA gel mobility shift of CD83 RNA with GST protein control; settings: native polyacrylamide gel, FIG. 3
T3 construct: made in house
T3 sequence (P08515 whole entry): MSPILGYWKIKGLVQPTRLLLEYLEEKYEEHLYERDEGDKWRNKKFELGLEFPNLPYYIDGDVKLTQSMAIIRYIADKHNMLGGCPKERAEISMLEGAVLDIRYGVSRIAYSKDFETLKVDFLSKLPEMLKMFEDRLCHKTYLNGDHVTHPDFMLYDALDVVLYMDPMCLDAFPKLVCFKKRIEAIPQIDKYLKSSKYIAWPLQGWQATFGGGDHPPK
Method: as §1

[4] = target: T2, GST-ELAV (HuR); assay: Surface Plasmon Resonance (BIACore X) protein-RNA interaction
Description: Specific protein-RNA interactions were detected by Surface Plasmon Resonance using the BIACore X optical biosensor (Pharmacia Biosensor AB, Upsala, Sweden).
The RNA used contained nucleotides 466 to 615 of SEQ ID NO:1 having a molecular mass of 48,350 gr/mol.
The GST-fusion proteins of interest (GST alone or GST-ELAV (HuR)) were immobilized onto the surface of a CM5 Chip (Pharmacia Biosensor AB, Upsala, Sweden) by using the BIACore GST Capture Kit (Pharmacia Biosensor AB, Upsala, Sweden), according to the manufacturers instructions, until a change of at least 1,000 resonance units (RU) was detectable.
1 μg of in vitro transcribed RNA (using the T7/SP6 Riboprobe Kit, Promega, Mannheim, Germany) was diluted in a total volume of 80 μl HBS-EP buffer (10 mM HEPES, 150 mM NaCl, 3 mM EDTA, 0.005% (v/v) polysorbate 20) and was allowed to flow over the chip at a flow rate of 50μl/minute. The standard running buffer was HBS-EP buffer. The sensor surface was regenerated between assays by injecting 30 μl of 0.5 M NaCl to remove bound analyte.
Determination of KD values and calculation of binding specifity were performed using BIAEvaluation Software 3.1 (Pharmacia Biosensor AB, Upsala, Sweden).

T1 sequence (Q15717 whole entry, the tested form may be a part): as the sequence (Q15717 whole entry) above

B1: stem-loop-1: CD83 RNA sub-fragment from nucleotide 295 to nucleotide 465 of SEQ ID NO:1, single stem-loop structure (nucleic acid, listed as Homo sapiens)
sense: AGCTGCAACTCGGGGACATACAGGTGCACTCTGCAGGACCCGGATGGGCAGAGAAACCTAAGTGGCAAGGTGATCTTGAGAGTGACAGGATGCCCTGCACAGCGTAAAGAAGAGACTTTTAAGAAATACAGAGCGGAGATTGTCCTGCTGCTGGCTCTGGTTATTTTCTAC
modifications: RNA; CDS (1)..(615)
[1]
  HuR binding to sub-fragment domain: can bind

B2: CD83 RNA: in vitro transcribed RNA of nucleotides 1 to 618 of SEQ ID NO:1 (human CD83 coding region) (nucleic acid, listed as Homo sapiens)
sense: ATGTCGCGCGGCCTCCAGCTTCTGCTCCTGAGCTGCGCCTACAGCCTGGCTCCCGCGACGCCGGAGGTGAAGGTGGCTTGCTCCGAAGATGTGGACTTGCCCTGCACCGCCCCCTGGGATCCGCAGGTTCCCTACACGGTCTCCTGGGTCAAGTTATTGGAGGGTGGTGAAGAGAGGATGGAGACACCCCAGGAAGACCACCTCAGGGGACAGCACTATCATCAGAAGGGGCAAAATGGTTCTTTCGACGCCCCCAATGAAAGGCCCTATTCCCTGAAGATCCGAAACACTACCAGCTGCAACTCGGGGACATACAGGTGCACTCTGCAGGACCCGGATGGGCAGAGAAACCTAAGTGGCAAGGTGATCTTGAGAGTGACAGGATGCCCTGCACAGCGTAAAGAAGAGACTTTTAAGAAATACAGAGCGGAGATTGTCCTGCTGCTGGCTCTGGTTATTTTCTACTTAACACTCATCATTTTCACTTGTAAGTTTGCACGGCTACAGAGTATCTTCCCAGATTTTTCTAAAGCTGGCATGGAACGAGCTTTTCTCCCAGTTACCTCCCCAAATAAGCATTTAGGGCTAGTGACTCCTCACAAGACAGAACTGGTATGA
modifications: RNA transcript; CDS (1)..(615)
[1]; FIG. 4
  specificity of the shift in mobility (GST, GST-L5, GST-M9, GST-ELAV (HuR)): only observed with protein comprising the HuR sequence
[1]; native polyacrylamide gel, FIG. 3
  mobility shift of the RNA by GST-ELAV (HuR): shifted the CD83 RNA to a higher position in the gel
[1]; sub-fragments nt1-294, nt202-414, nt295-618, FIG. 6
  region of HuR binding: from nucleotide 415 to nucleotide 618
[2]
  competition of labeled CD83 RNA binding by unlabeled RNA: capable of titrating free GST-ELAV (HuR) protein
[3]
  mobility shift of the RNA by GST protein control: no shift occurred

B3: stem-loop-2: CD83 RNA sub-fragment from nucleotide 466 to nucleotide 618 of SEQ ID NO:1, 3-pronged stem-loop structure (nucleic acid, listed as Homo sapiens)
sense: TTAACACTCATCATTTTCACTTGTAAGTTTGCACGGCTACAGAGTATCTTCCCAGATTTTTCTAAAGCTGGCATGGAACGAGCTTTTCTCCCAGTTACCTCCCCAAATAAGCATTTAGGGCTAGTGACTCCTCACAAGACAGAACTGGTATGA
modifications: RNA; CDS (1)..(615)
[1]
  HuR binding to sub-fragment domain: can bind

B4: CD83 from nucleotides 466 to 615 of SEQ ID NO:1: in vitro transcribed RNA containing nucleotides 466 to 615 of SEQ ID NO:1 (nucleic acid, listed as Homo sapiens)
sense: TTAACACTCATCATTTTCACTTGTAAGTTTGCACGGCTACAGAGTATCTTCCCAGATTTTTCTAAAGCTGGCATGGAACGAGCTTTTCTCCCAGTTACCTCCCCAAATAAGCATTTAGGGCTAGTGACTCCTCACAAGACAGAACTGGTA
modifications: RNA transcript; CDS (1)..(615)
[4]
  binding of HuR (affinity and specificity in words): high affinity and is highly specific
